# Measurements taken from the supplement of paper PMC10567573.
# ± gives the standard deviation.
# Experiment: protein stability index of a GFP-peptide fusion (GPS, HEK-293T) (PSI 1-6); higher = more stable
# Conditions: c terminus: a fixed tail appended
# 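Note: 24-mer peptide tiles fused after GFP, lentivirally expressed, FACS-sorted into six equal bins by GFP/DsRed ratio, decoded by Illumina sequencing, PSI is the read-weighted mean bin number.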
Sequence,protein stability index (treatment: DMSO),"protein stability index (treatment: MLN4924 1 uM, 8 h)"
AAEQAERSQSSIVPEEEQAANKGE [SMARCE1],5.51 ± 0.3,5.54 ± 0.19
AAGMRFPLPEAIDPDVGVNSLQSY [PCDHGA10],3.9 ± 0.2,4.12 ± 0.31
AAKRMRLEIYQSSQDEPIALDKQH [NOL4L],3.59 ± 0.27,3.88 ± 0.25
AALPLAAEETANLPPSPPPSPASE [MAP2],5.27 ± 0.13,5.09 ± 0.18
AAQPMQPLPESLASLHPSVSPGSP [PLAGL1],5.2 ± 0.12,5.17 ± 0.29
AARISNKGKFSTDTKGKPTSRTQV [ZC2HC1A],3.91 ± 0.38,4.19 ± 0.39
ADGLLQLGPLGSTAFLPDSKCLVD [GALNT9],3.97 ± 0.16,4.09 ± 0.19
ADKMTAEEVDQMFQFASIDVAGNL [MYL5],4.35 ± 0.41,4.47 ± 0.2
AEDLRMLDASGEKMNGSHRDQGSS [IKZF1],5.18 ± 0.43,5.34 ± 0.23
AEEESSGGEEEDEDENIEVVYSKA [EIF5],5.22 ± 0.17,5.25 ± 0.16
AEEKERRRKEYDALKAAKREQEKK [LRRC59],5.31 ± 0.26,5.39 ± 0.12
AEHWTKEHCGAVCFVKDNPQKSYF [WAS],2.92 ± 0.39,2.98 ± 0.23
AEKRKRQAEIENKRRQLEDERRQL [PALM],4.68 ± 0.5,4.94 ± 0.32
AELNKEVSTNTAMIQTSKTEITEL [KRT13],5.26 ± 0.14,5.18 ± 0.079
AERVTLADFKGVLQRPSYKFFFKS [DVL3],2.29 ± 0.3,2.63 ± 0.44
AGADLPPPKIRLKPHRLGDSEHEP [PWWP2B],4.83 ± 0.23,4.91 ± 0.28
AGNRNSMVIHIPEEPRPSRPRYKA [KCNK9],4.14 ± 0.35,4.24 ± 0.13
AGPNGTLFVADAYKGLFEVNPWKR [APMAP],2.39 ± 0.28,2.72 ± 0.31
AIIISTIVLDRALHIPMYFFLAIL [OR10K2],3.04 ± 0.47,3.04 ± 0.33
AKALNRPPTYPTKYFGCELGAQTQ [EIF5],2.71 ± 0.23,3.15 ± 0.13
AKEMSVPFYTSRIDEVLLHQDVDL [GFOD1],3.74 ± 0.59,3.88 ± 0.35
AKRNRLAPAHVDEQVFLYENARSG [ZBED1],4.3 ± 0.59,4.43 ± 0.25

Sequence,protein stability index (treatment: DMSO),"protein stability index (treatment: MLN4924 1 uM, 8 h)"
ALADVEVKYIVERTMLDFPQHVSS [NLN],2.38 ± 0.36,2.39 ± 0.16
ALGGLQSWRVGVVRVRQDSGAEGH [TRIM35],2.95 ± 0.46,3.31 ± 0.38
ALKLIIRLFLVEDLVDSLKLAVFM [RTN3],3.69 ± 0.17,–
ALLADEERCLSCILAQQPDRLRDE [TRADD],4.28 ± 0.2,4.3 ± 0.12
ALVFGVNTFIALALQTLLTLIVVD [SLC19A2],3.33 ± 0.55,3.37 ± 0.58
ALVGCVISDNPERYSTNLSNHVDD [EDNRA],3.94 ± 0.44,4.16 ± 0.16
AMSTLGVIEAIAQITVKALPKPPG [PTPRD],2.21 ± 0.17,2.16 ± 0.26
ANAHTYHINSISVNSDYETYMSAD [PPP2R2B],3.81 ± 0.24,3.8 ± 0.22
APAKYTVFDAEGYVKPQSCIDIVI [MOSPD3],2.83 ± 0.84,2.5 ± 1.3
APFGRISDARVVKDMATGKSKGYG [TIA1],4.47 ± 0.17,4.35 ± 0.18
APRGKNGFTPLHMAVDKDTTNVGR [FEM1A],4.37 ± 0.19,4.44 ± 0.18
AQFRLLSEVEELNMSLTALREKLL [TEKT4],2.23 ± 0.43,2.62 ± 0.45
AQHSLMDGYCMFNHVAVAARYAQQ [HDAC6],2.1 ± 0.25,1.92 ± 0.39
AQRHRELYLRVELSDVQNPAISIT [HACD3],2.16 ± 0.34,2.18 ± 0.15
ARIAIRGTIKKIIHQETVSKNGNG [PCMTD2],3.01 ± 0.22,3.21 ± 0.27
ARNIGFKVNSKKMLGKYNTPVSYR [ACSBG2],2.32 ± 0.37,2.55 ± 0.14
ARPTEVLAGTQLLYAFFTRTHGDM [TRIB3],2.43 ± 0.45,2.33 ± 0.38
ARRKSELPQDPHTKKALEAHCRAD [PPP2R5C],4.68 ± 0.34,5.17 ± 0.12
ASCCIDPREDGASVNDQCGFGVLR [TSPAN10],3.44 ± 0.14,3.83 ± 0.31
ASGLTGFIGLEVVAQLFNCMVGLL [ATL3],2.26 ± 0.16,2.15 ± 0.1
ASKTVFFFFSSPGNNNGTSIEDGQ [BTBD1],2.55 ± 1.3,2.29 ± 0.74
ASLLQPVTPLGTSRWRKISAALPY [NCF4],2.46 ± 0.4,2.61 ± 0.3

Sequence,protein stability index (treatment: DMSO),"protein stability index (treatment: MLN4924 1 uM, 8 h)"
ATFEKILESELLRGTQYSSLDSLD [PSD2],2.25 ± 0.23,2.41 ± 0.14
ATHILVRQQGNPGHRSIYLALKLP [ADAMTS4],2.92 ± 0.62,2.1 ± 0.35
ATKQLDFTRKTLAEKKQELDKLRN [SASS6],4.19 ± 0.26,4.43 ± 0.24
ATYISEVHEHDGHLYLGSFRSPFL [APMAP],2.37 ± 0.4,1.97 ± 0.14
AVAHKTPRCPGSVNEKLPQREGTG [SMOC2],5.13 ± 0.47,5.33 ± 0.12
AVGKMGFVVTMLKLIQKKLLDKTC [ZER1],2.29 ± 0.64,2.35 ± 0.8
AVKGSLGSDLGGPLPTDPMLGLAL [TSPAN10],3.16 ± 0.17,3.06 ± 0.12
AVQLRHAWNPEDRSLNVFVKDDDR [SPSB4],4.21 ± 0.25,4.24 ± 0.26
AVSTEDLKECLKKQLEFCFSRENL [LARP4],2.65 ± 0.55,3.11 ± 0.68
AVTKDFKLTDKHETVVSYLPLSHI [ACSBG2],2.98 ± 0.075,3.08 ± 0.64
AVVAAGGGSSGQVTSNGSIGRDPP [CLPTM1],4.75 ± 0.13,4.88 ± 0.26
AYACLVCGKYFQGRGLKSHAYIHS [USP39],2.29 ± 0.27,2.51 ± 0.52
AYIATQGPLAETTEDFWRMLWEHN [PTPRD],2.79 ± 0.46,2.8 ± 0.37
AYTHGCILHPELTVDSMIPAYATT [GDAP1],2.65 ± 0.15,2.76 ± 0.063
CCTHNNSATLSWKQPPLSTVPADG [TRIM9],3.09 ± 0.073,3.02 ± 0.088
CEDQKQIKKPESFSKQIVLRGKSI [NEUROD6],4.7 ± 0.21,4.61 ± 0.21
CHQMGVVHRDLKPENLLLASKCKG [CAMK2B],3.7 ± 0.16,3.84 ± 0.39
CLEGSINEHSAHCPHTPEFSVTGG [RPAIN],4.2 ± 0.41,4.07 ± 0.21
CLGVHCDFHQGLLSFYNARTKQVL [FSD1],2.42 ± 0.69,2.27 ± 0.18
CLTTGDVIAINYNEKIYELRVMET [UFD1],2.25 ± 0.35,2.04 ± 0.27
CMAFELATGDYLFEPHSGEDYSRD [SRPK2],3.87 ± 0.47,4.12 ± 0.25
